This note sets out measurements from EP4682166A1 (Guangzhou Enmai Biotechnology Co., Ltd, dated 2026).

Test [1] addresses T1, natural NMI in joint fluid of an arthritic patient (human) (UniProt Q13287).
T1 sequence (looked up): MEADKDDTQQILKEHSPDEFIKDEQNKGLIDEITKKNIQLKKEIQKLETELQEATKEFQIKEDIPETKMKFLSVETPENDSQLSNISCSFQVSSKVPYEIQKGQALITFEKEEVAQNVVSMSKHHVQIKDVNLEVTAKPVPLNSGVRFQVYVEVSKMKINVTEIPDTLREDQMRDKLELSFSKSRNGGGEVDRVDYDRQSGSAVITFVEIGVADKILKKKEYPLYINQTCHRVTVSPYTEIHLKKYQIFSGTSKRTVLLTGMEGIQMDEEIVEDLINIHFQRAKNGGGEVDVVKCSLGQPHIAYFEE
As to the kind of experiment: sandwich ELISA; detection 94C4-1-biotin 0.5µg/mL; joint fluid diluted 1/2. A general note: An ELISA detects its analyte on a solid surface through an enzyme-linked reagent.

The target in test [2] is T2, human NMI (N-myc Interacting protein) (human) (UniProt Q13287).
T2 sequence (looked up): T1 sequence (looked up)
Description: magnetic-bead chemiluminescent sandwich, kit of Example 8-1; capture 98G10 beads, detection acridinium-B-8; series 1, hNMI 1000 pg/mL.

Test [3] has as its target T2, human NMI (N-myc Interacting protein) (human). Description: magnetic-bead chemiluminescent sandwich, kit of Example 8-1; capture 98G10 beads, detection acridinium-B-8; series 1, hNMI 14000 pg/mL.
Test [4] shares this target. As to the kind of experiment: magnetic-bead chemiluminescent sandwich; capture 98G10 beads (1.0 mg 98G10), detection acridinium-B-8; hNMI 400 pg/ml.
For test [5] the target is unchanged. Description: magnetic-bead chemiluminescent sandwich, kit of Example 8-1; capture 98G10 beads, detection acridinium-B-8; series 2, hNMI 7500 pg/mL.
The target is the same in test [6]. Description: magnetic-bead chemiluminescent sandwich; capture 98G10 beads, detection acridinium-B-8 (1.0 mg B-8 labelled); hNMI 1000 pg/mL.
For test [7] the target is unchanged. Description: magnetic-bead chemiluminescent sandwich, kit of Example 8-1; capture 98G10 beads, detection acridinium-B-8; series 2, hNMI 3600 pg/mL.
Test [8] has the same target. Description: magnetic-bead chemiluminescent sandwich; capture 98G10 beads (0.5 mg 98G10), detection acridinium-B-8; hNMI 2000 pg/ml.
For test [9] the target is unchanged. Description: magnetic-bead chemiluminescent sandwich; capture 98G10 beads, detection acridinium-B-8 (2.0 mg B-8 labelled); hNMI 2000 pg/mL.

B1: monoclonal antibody B-8 (antibody, V domains shown)
VH: QSLEESGGDLVKPGASLTLTCTASGFSFSSSYYMCWVRQAPGKGLEWIACIYAGSSGSTYYASWAKGRFTISKTSSTTVTLQMTSLTAADTATYFCAREYSYDDYGDFWGFNLWGPGTLVTVSS
VL: ALVMTQTPSSVSAAVGGTVTINCQASQNIYTNLAWYQQKPGQPPKLLIYGASNLESGVPSRFKGSGSGTEYTLTISDLECDDAATYYCQSSLYSRIADRANAFGGGTEVVVK
notes: Rabbit monoclonal antibody; also called B8-1
Consider B1, for which the OD450 in test [1] amounted to 0.128 OD450.

B2: acridinium ester-labeled monoclonal antibody B-8 (antibody, V domains shown)
VH: B1 VH
VL: B1 VL
modifications: acridinium ester label on the antibody, site not stated
Consider B2, for which the Signal value worked out at 57600 in [2]; 1.05e+06 in test [3]; 86800 in test [4]; 900000 in test [5]; 97600 in test [6]; 408000 in [7]. For the same molecule, the Signal value in [8] amounted to 204000; in test [9] it was 234000.
